The results in this text go back to PMC10988774 (Journal of molecular biology, 2023).

For the assay, the target named is T1, p65 La module, LaMod(108–355) (Tetrahymena thermophila, UniProt W7X6T2 108-355).
T1 sequence (looked up): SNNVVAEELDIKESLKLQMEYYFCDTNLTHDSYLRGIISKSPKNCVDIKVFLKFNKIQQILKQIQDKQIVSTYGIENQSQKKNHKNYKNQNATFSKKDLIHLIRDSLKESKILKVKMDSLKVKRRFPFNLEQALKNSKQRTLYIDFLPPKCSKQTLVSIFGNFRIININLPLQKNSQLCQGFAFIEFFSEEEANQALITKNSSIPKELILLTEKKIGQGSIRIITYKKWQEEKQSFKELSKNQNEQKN
In words: NMR titration.

B1: p65 N-terminal domain, NTD (residues 1–109) (domain or fragment, Tetrahymena thermophila, UniProt W7X6T2 1-109, looked up)
chain: MDEYLENTNLEELEQECFMEDYQHEDVVEQENHQVDANDIYENQQMNDESQLNQDVKISQQKEQAVEMIEEQQQNNQDKFKQFQDCMAHITELNFKRNYQNLTEQSSSN
On to B1, for which the binding result is listed as “binds”.
